Experiments:
[1] = target: CASP (encoded by CUX1; isoform 4) (UniProt Q13948); experiment: co-immunoprecipitation (IP: c-Myc) from cytosol, western blot quantification; conditions: absence of detergent, n=4, parent: est. 1.0, read off a plot
[2] = target: golgin-84 (also known as GOLGA5) (UniProt Q8TBA6); experiment: as above; conditions: absence of detergent, n=4, parent: est. 1.0, read off a plot
Sequence of golgin-84 (also known as GOLGA5) (Q8TBA6 whole entry): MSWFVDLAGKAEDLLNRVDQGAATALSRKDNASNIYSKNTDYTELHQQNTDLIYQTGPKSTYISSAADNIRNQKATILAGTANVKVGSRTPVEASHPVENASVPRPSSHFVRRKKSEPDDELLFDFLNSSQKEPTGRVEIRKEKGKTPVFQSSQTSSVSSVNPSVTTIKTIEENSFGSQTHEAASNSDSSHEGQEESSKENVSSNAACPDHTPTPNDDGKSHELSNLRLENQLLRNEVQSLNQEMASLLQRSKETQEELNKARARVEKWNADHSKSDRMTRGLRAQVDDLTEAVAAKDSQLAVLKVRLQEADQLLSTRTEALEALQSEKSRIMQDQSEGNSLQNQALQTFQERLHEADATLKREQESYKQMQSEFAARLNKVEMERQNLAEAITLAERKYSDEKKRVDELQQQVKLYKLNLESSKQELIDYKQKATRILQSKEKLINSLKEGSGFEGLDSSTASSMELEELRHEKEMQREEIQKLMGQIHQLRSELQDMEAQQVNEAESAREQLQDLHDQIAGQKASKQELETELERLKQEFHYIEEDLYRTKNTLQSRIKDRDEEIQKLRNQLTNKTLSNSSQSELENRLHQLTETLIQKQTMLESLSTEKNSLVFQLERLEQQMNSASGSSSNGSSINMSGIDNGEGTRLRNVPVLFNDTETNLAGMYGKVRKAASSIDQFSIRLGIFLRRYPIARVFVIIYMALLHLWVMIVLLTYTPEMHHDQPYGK

Sequence of CASP (encoded by CUX1; isoform 4) (Q13948 whole entry, canonical isoform): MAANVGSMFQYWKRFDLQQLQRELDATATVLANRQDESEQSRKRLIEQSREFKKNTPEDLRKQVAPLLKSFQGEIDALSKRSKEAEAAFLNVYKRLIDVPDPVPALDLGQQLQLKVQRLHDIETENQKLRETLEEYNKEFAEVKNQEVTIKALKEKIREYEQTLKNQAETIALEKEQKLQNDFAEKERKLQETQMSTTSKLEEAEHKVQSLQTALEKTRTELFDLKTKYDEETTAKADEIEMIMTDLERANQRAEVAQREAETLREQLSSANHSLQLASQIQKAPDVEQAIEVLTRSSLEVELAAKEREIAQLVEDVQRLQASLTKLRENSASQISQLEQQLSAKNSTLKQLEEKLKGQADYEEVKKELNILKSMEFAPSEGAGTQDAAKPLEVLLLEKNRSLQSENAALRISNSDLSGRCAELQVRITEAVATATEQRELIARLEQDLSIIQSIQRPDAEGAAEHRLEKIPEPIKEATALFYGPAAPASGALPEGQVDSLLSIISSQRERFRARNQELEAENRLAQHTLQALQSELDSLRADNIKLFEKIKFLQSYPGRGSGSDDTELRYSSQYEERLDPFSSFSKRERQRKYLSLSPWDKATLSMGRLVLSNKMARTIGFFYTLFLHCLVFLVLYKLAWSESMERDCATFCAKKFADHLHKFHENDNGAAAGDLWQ
Sequence of c-Myc–TRC40 (wild-type TRC40, also known as ASNA1), O43681 D74E; L190D; I193D (O43681 whole entry D74E/L190D/I193D): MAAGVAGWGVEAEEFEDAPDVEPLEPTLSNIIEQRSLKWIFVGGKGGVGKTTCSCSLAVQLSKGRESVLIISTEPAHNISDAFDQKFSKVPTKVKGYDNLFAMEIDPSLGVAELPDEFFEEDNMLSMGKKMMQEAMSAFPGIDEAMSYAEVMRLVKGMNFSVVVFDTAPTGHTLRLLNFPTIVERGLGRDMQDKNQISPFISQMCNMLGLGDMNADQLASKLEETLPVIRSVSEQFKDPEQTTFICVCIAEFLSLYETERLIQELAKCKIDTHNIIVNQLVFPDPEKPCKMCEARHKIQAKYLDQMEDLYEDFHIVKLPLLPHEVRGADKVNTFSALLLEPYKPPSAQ
Sequence of c-Myc–TRC40 (wild-type TRC40, also known as ASNA1), O43681 D74E; L190K; I193K (O43681 whole entry D74E/L190K/I193K): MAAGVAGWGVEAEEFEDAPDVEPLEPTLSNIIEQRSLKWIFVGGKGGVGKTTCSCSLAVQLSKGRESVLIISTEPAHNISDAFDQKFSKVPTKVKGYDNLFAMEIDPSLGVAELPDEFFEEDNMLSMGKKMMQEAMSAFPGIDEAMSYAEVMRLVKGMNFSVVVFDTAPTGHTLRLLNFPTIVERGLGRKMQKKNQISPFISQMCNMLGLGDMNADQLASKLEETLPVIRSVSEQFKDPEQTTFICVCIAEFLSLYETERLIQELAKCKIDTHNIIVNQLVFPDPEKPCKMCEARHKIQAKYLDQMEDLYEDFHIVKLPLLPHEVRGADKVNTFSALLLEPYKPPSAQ
Sequence of c-Myc–TRC40 (wild-type TRC40, also known as ASNA1), O43681 D74E (O43681 whole entry D74E): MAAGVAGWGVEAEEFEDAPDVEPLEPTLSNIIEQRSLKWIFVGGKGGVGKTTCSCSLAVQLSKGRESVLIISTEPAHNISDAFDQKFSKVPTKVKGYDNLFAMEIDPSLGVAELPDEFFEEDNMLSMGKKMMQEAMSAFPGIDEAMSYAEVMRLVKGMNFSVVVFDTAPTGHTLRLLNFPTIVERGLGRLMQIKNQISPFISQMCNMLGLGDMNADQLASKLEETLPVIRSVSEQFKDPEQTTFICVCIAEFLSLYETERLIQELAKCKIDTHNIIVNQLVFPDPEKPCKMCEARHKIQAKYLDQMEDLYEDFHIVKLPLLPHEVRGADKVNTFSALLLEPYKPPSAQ

ratio to parent [1] | ratio to parent [2] | Substance
23 | 21 | c-Myc–TRC40 (wild-type TRC40, also known as ASNA1), O43681 D74E; L190D; I193D
14 | 9 | c-Myc–TRC40 (wild-type TRC40, also known as ASNA1), O43681 D74E; L190K; I193K
4.7 | 13 | c-Myc–TRC40 (wild-type TRC40, also known as ASNA1), O43681 D74E
